The target in experiment [1] is T1, N-terminally polyhistidine tagged human MARCO ECD (147-520), recombinant (human, UniProt Q9UEW3 147-520).
T1 construct: also called PI-RG-3000; recombinant human MARCO; not shown: N-terminal polyhistidine tag
T1 sequence: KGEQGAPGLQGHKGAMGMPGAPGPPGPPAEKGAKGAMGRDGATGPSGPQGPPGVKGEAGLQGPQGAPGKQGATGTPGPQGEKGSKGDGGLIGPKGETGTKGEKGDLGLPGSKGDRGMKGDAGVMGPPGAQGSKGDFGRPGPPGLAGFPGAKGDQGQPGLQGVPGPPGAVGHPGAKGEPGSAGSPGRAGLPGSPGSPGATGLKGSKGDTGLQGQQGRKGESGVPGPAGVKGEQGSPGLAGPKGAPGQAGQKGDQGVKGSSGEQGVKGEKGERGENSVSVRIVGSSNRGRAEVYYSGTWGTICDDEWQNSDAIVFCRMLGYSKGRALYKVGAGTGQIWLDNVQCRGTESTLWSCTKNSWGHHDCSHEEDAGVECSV
As to the kind of experiment: label-free kinetics (ProbeLife Gator), mAb captured, human MARCO. How it is done:
The kinetics assay used either anti-mouse Fc or anti-human Fc probes to capture the anti-MARCO antibodies onto the probe, and then a five-step kinetic protocol was used to measure the affinity of the antibodies to the antigen, including the following steps: baseline, loading, baseline, association, and dissociation. The kinetics buffer (K buffer) provided by ProbeLife was used to establish the baseline for 60 seconds, and then the anti-mFc or anti-hFc probes were loaded with 200 nM of the antibodies for 120s until the capture reached saturation, measurement of the baseline in K buffer was performed for another 60s, followed by the association step using 200 nM antigen (human MARCO, mouse MARCO or cyno MARCO), and the dissociation step performed in K buffer for 5-10 minutes. The assay was done at 37° C. to maximize antibody:antigen dissociation.
Kinetics and epitope binning analysis of the newly generated anti-human MARCO antibodies was performed as described in Example 3.

Experiment [2] has as its target T1, N-terminally polyhistidine tagged human …. Kind of experiment: SPR, multi cycle kinetics, huMARCO antigen. The essentials: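 On a CM4 chip, anti-mouse Fc mAb was amine-coupled to a 4500 RU target and used to capture the antibodies. Their binding kinetics and affinity for N-terminally His-tagged human MARCO extracellular domain (147-520) were then measured by multi-cycle surface plasmon resonance on a Biacore T200. This was done at 25° C in 10 mM HEPES pH 7.4, 150 mM NaCl, 3 mM EDTA, 0.05% surfactant P20, with 0.625–10 nM injections, 90 s association and 600 s dissociation, and fitting in BIAevaluation 3.1.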
Background: Surface plasmon resonance follows binding to a sensor surface in real time, without labels.

For experiment [3], the target named is T2, Cynomolgus MARCO, full length, on cells (cynomolgus, UniProt A0A2K5X0Z2 1-519).
T2 construct: whole, on cells; also called cyno MARCO; CyMARCO
T2 sequence: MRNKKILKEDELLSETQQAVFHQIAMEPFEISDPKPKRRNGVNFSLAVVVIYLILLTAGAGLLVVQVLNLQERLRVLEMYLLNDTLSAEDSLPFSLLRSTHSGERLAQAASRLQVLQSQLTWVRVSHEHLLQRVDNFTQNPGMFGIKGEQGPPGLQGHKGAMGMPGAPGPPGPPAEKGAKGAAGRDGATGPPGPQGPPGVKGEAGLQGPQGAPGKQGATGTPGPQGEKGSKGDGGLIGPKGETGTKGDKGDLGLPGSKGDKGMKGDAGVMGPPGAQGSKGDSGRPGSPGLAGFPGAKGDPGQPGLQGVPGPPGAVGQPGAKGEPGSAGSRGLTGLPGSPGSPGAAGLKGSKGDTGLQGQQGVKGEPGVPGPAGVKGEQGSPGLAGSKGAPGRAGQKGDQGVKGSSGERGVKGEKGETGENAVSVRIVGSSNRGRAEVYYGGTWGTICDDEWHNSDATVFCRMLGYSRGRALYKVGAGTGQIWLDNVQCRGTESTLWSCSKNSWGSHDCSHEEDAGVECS
Kind of experiment: flow cytometry, 293T CyMARCO cells. Summed up: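 Geometric mean fluorescence intensity from flow cytometry, analysed in FlowJo and Prism, served as the readout of binding to HEK293T cells carrying human or cynomolgus MARCO. Cells were stained with Zombie NIR for viability and plated at 100,000 cells/well. An 8-point three-fold antibody dilution from 100 nM in D-PBS/2% FBS/2 mM EDTA was applied for 1 hr on ice, followed by APC goat anti-mouse IgG for 30 min on ice, with acquisition on an Attune NxT.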
In general terms: Flow cytometry measures light scatter and fluorescence of single cells or particles in a stream.

For experiment [4], the target named is T3, mouse MARCO (R&D biosystems), recombinant, coated in the LDL competition assay (mouse, UniProt Q60754 70-518, limits assumed).
T3 sequence (looked up): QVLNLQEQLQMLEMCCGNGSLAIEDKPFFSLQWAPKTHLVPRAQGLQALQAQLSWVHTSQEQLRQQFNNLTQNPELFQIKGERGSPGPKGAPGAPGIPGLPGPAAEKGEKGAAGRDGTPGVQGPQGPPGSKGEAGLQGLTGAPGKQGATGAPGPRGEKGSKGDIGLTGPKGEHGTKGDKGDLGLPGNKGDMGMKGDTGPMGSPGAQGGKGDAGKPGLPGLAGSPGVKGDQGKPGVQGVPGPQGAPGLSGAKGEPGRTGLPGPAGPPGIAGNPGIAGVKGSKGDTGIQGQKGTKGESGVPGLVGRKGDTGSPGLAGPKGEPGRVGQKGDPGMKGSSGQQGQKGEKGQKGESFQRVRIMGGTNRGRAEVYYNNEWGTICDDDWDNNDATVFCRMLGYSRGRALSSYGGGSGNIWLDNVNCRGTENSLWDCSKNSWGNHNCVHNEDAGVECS
As to the kind of experiment: LDL competition on coated mouse MARCO (MSD), competitor biotinylated hLDL. How it is done: A high-binding, 96-well MSD plate was coated with 4 μg/ml mouse MARCO or 4 μg/ml human MARCO (R&D biosystems). After the plate was blocked with PBST and 5% BSA for an hour, titrated anti-mouse or anti-human MARCO antibodies were added to the plate and incubated for 30 minutes. Biotinylated hLDL (860 pM or 2 μg/ml) were added to the antibody, and the antibody/LDL mixture was incubated for an hour to allow the mixture to reach binding equilibrium. The plates were washed and bound biotinylated LDL was detected with Sulfo-tagged streptavidin that generates an electrocheminlumenscent signal when read buffer is added and electricity is applied to the electrodes in the MSD plate. IC50's were calculated using a 4-parameter curve fit in GraphPad Prism software.

B1: PI-HX-3031 (antibody)
heavy: QVQLKESGPGLVQPSQTLSLTCTVSGFSLTSYHVSWVRQPPGKGLEWMGAIWTGGSIAYNSLLKSRLSISRDTSKSQVFLKMNSLQTEDTATYYCARDLSDYYSSYTSFDYWGQGVMVTVSTAETTAPSVYPLAPGTALKSNSMVTLGCLVKGYFPEPVTVTWNSGALSSGVHTFPAVLQSGLYTLTSSVTVPSSTWSSQAVTCNVAHPASSTKVDKKIVPRECNPCGCTGSEVSSVFIFPPKTKDVLTITLTPKVTCVVVDISQNDPEVRFSWFIDDVEVHTAQTHAPEKQSNSTLRSVSELPIVHRDWLNGKTFKCKVNSGAFPAPIEKSISKPEGTPRGPQVYTMAPPKEEMTQSQVSITCMVKGFYPPDIYTEWKMNGQPQENYKNTPPTMDTDGSYFLYSKLNVKKETWQQGNTFTCSVLHEGLHNHHTEKSLSHSP
light: DIQMTQSPASLSTSLGETVSIECLASEGISNDLAWYQQKSGKSPQLLIYAASRLQDGVPSRFSGSGSGTRYSLKISGMQPEDEADYFCQQSYKYPLTFGSGTKLEIKRADAAPTVSIFPPSTEQLATGGASVVCLMNNFYPRDISVKWKIDGTERRDGVLDSVTDQDSKDSTYSMSSTLSLTKADYESHNLYTCEVVHKTSSSPVVKSFNRNEC
notes: Parental rat hybridoma, rat IgG2a
One may read the koff as the rate constant with which the complex falls apart. By kon is commonly meant the rate constant with which the complex forms. The term Kd denotes the constant that tells how readily two partners part at equilibrium. For B1, in experiment [1], the koff was 0.000798 s⁻¹ and the kon turned out to be 443000 M⁻¹ s⁻¹. The Kd in experiment [2] stood at 0.0913 nM.

B2: PI-HX-3043 (antibody, rat IgG2a)
heavy: QVNLLQSRAALVKPGASVKLSCKASGYTFTDYYLHWVKQSHAKSLEWIGYINPNNAYTSYNEKFKSKATLTVDKSTNTAYMELSRLTSADSATYYCARDTTDYYNLHFAYWGQGTLVTVSSAETTAPSVYPLAPGTALKSNSMVTLGCLVKGYFPEPVTVTWNSGALSSGVHTFPAVLQSGLYTLTSSVTVPSSTWSSQAVTCNVAHPASSTKVDKKIVPRECNPCGCTGSEVSSVFIFPPKTKDVLTITLTPKVTCVVVDISQNDPEVRFSWFIDDVEVHTAQTHAPEKQSNSTLRSVSELPIVHRDWLNGKTFKCKVNSGAFPAPIEKSISKPEGTPRGPQVYTMAPPKEEMTQSQVSITCMVKGFYPPDIYTEWKMNGQPQENYKNTPPTMDTDGSYFLYSKLNVKKETWQQGNTFTCSVLHEGLHNHHTEKSLSHSP
light: DIQMTQSPASLSASLGETVSIECLTSEGISNDLAWYQQKSGKSPQLLIYDASRLEDGVPSRFSGSGSGTRYSLKISGMQTEDEADYFCQQSYKYPLTFGSGTKLEIKRADAAPTVSIFPPSTEQLATGGASVVCLMNNFYPRDISVKWKIDGTERRDGVLDSVTDQDSKDSTYSMSSTLSLTKADYESHNLYTCEVVHKTSSSPVVKSFNRNEC
notes: as for B1
Turning to B2, in experiment [1], the koff worked out at 0.000849 s⁻¹ and the kon was found to be 233000 M⁻¹ s⁻¹.

B3: PI-HX-3021 (antibody, V domains shown)
VH: QVRLVQSGTALVRPGASVRMSCTASGYSFTDYWVSWVKQSHGQSLEWIGEIYPNSGTTNFNEKFEGKATLTVDKSTSTAYMELSRLTSEDSAIYYCTGEGTFDYWGQGVMVTVSS
VL: EIVLTQSPTTMAASPGEKVTITCRPSSSLSNMHWFQQKSGTSPKPWIYDTSKLASGVPDRFSGSGSGTSYSLTISSMEAEDAATYYCLQRSSYPPTFGAGTKLELK
notes: Rat IgG2a hybridoma antibody; Not the effector dead PI-3021; also called PI-3007 (name of the recombinant form)
Usually EC50 stands for the midpoint of the concentration-response curve. Consider B3, for which the binding result in experiment [3] is reported as “no binding”. Also, the EC50 in experiment [4] is 0.25 nM.

B4: PI-HX-3016 (antibody, rat IgG1, V domains shown)
VH: EVQLVESGGGLVKPGASLKLSCVASGFTFSDDWMNWVRQTPGKAMEWIGDIKYDGSYTNYVPSLKNRLTISRDNAKNTLYLQMTNVRSEDTATYYCTSGGVFDYWGQGVMVTVSS
VL: EIVLSQSPTTMAASPGEKVTITCRASSSVSYMHWFQQKSGTSPKPWIYDTSKLASGVPDRFSGSGSGTSYSLTISSMEAEDAATYYCLQRSGYPPTFGAGTKLEVK
notes: Rat IgG1 hybridoma antibody
As for B4, the binding result in experiment [3] is on record as “no binding”. The EC50 in experiment [4] amounted to 0.34 nM.

B5: PI-HX-3061 (antibody, rat IgG2a)
heavy: EVQLVESGGGLVQPGSSLKLSCVASKFTFSNYGMNWIRQAPKKGLEWIALIYYNSNNKYYADSVKGRFTISRDNSKNTLYLEMNSLRSEDTAMYYCAKSLTGGSDYFDSWGQGVMVTVSSAETTAPSVYPLAPGTALKSNSMVTLGCLVKGYFPEPVTVTWNSGALSSGVHTFPAVLQSGLYTLTSSVTVPSSTWPSQTVTCNVAHPASSTKVDKKIVPRNCGGDCKPCICTGSEVSSVFIFPPKPKDVLTITLTPKVTCVVVDISQDDPEVHFSWFVDDVEVHTAQTRPPEEQFNSTFRSVSELPILHQDWLNGRTFRCKVTSAAFPSPIEKTISKPEGRTQVPHVYTMSPTKEEMTQNEVSITCMVKGFYPPDIYVEWQMNGQPQENYKNTPPTMDTDGSYFLYSKLNVKKEKWQQGNTFTCSVLHEGLHNHHTEKSLSHSP
light: DVQMTQSPSYLAASPGESVSISCKASKSIGTFLAWYQEKPEKTNKLLIYSGSTLQSGTPSRFSGSGSGTDFTLTIRNLEPEDFAVYYCQQHDEYPFTFGSGTKLEIKRADAAPTVSIFPPSTEQLATGGASVVCLMNNFYPRDISVKWKIDGTERRDGVLDSVTDQDSKDSTYSMSSTLSLTKADYESHNLYTCEVVHKTSSSPVVKSFNRNEC
notes: Parental rat hybridoma, rat IgG2a; cross reactive with human and mouse MARCO
As to B5, the Kd in experiment [2] came to 0.256 nM.
